Measurements taken from PMC9695803.

Target: Human parvovirus B19 major capsid protein VP2 (human parvovirus B19)

In the case of “Human parvovirus B19 minor capsid protein VP1 (from UniProt Q9PZT0 1-781) (natural protein)”, the proportion of VP1 in the VP1/VP2 VLP is reported as 5.11% and the proportion of VP1 in the VP1h/VP2 VLP is reported as 25.4%.
